Test results published in the supplement of paper PMC10126150.
± gives the standard deviation of the averaged measurements.

These sequences were tested on ATP (assay: switch fluorescence ratio, 500 uM ATP over buffer (Cy3 cluster intensity, sum of 5 cycles each) (fold (ratio)); higher = stronger signal-on switching upon ATP binding; sequences stand for … in TCGTCGGCAGCGTCAGATGTGTATAAGAGACAGTTTTTTTTTTTTTTTTTTTTTTTTT…TC). Details: aptamer strand: ATP DNA aptamer (quencher-CACCTGGGGGAGTATTGCGGAGGAAGG + anchor), 100 nM annealed; ATP concentration: 500 uM.
How it was run: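 Exposure to 500 uM ATP lasted 15 min at 22 °C before imaging, and a selection-buffer image was taken beforehand, for Cy3-labelled switching-strand clusters on a modified Illumina MiSeq flow-cell annealed to 100 nM quencher-labelled ATP aptamer. Five buffer/ATP cycles were run with NaOH stripping and re-annealing between them. The fluorescence ratio per cluster is summed target-cycle over summed buffer-cycle Cy3 intensity, averaged per switch-domain sequence. Clusters outside 100-1000 RFU were excluded.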

Sequence | switch fluorescence ratio
GAATATTTTG | 0.994 ± 0.015
GAATCAATGG | 1.03 ± 0.02
GAATCATGTT | 0.9915 ± 0.0065
GAATCCAGTT | 0.989 ± 0.02
GAATCCGTTC | 1.07 ± 0.026
GAATCGATAC | 1.76 ± 0.084
GAATCGGGGT | 0.992 ± 0.045
GAATCTCGGA | 1.018 ± 0.0018
GAATGAAGAA | 0.9989 ± 0.0081
GAATGAGATC | 1.01 ± 0.11
GAATGAGATT | 1.001 ± 0.0043
GAATGGAGGT | 1.01 ± 0.021
GAATGGCTAG | 1.0109 ± 0.00049
GAATGGCTGG | 0.962 ± 0.0099
GAATGGGAGT | 0.9969 ± 0.0051
GAATGGGTAT | 0.979 ± 0.026
GAATGGTAGT | 1.025 ± 0.0078
GAATGTATCG | 0.981 ± 0.021
GAATGTATGA | 0.99 ± 0.023
GAATGTTCAG | 1.02 ± 0.024
GAATGTTCTG | 0.996 ± 0.052
GAATTAGAGA | 1.03 ± 0.033
GAATTAGGGA | 1.01 ± 0.018
GAATTATCAG | 0.968 ± 0.045
GAATTATGTT | 1.01 ± 0.004

Sequence | switch fluorescence ratio
GAATTGGGGG | 1.01 ± 0.03
GAATTTCGGG | 0.996 ± 0.013
GAATTTGAGC | 1.03 ± 0.02
GAATTTGGAA | 1.01 ± 0.022
GAATTTGTGA | 0.98 ± 0.035
GAATTTGTGG | 0.995 ± 0.037
GAATTTTGG | 0.9824 ± 0.0032
GAATTTTTTC | 1.02 ± 0.016
GACAAATCTG | 1.04 ± 0.043
GACAACGGAT | 1.02 ± 0.03
GACAACTTTT | 0.991 ± 0.016
GACAATTCTT | 1.006 ± 0.0096
GACACAGGGG | 1.06 ± 0.047
GACACATCAA | 1.048 ± 0.008
GACACCAATC | 1.36 ± 0.052
GACACGGGGT | 1 ± 0.071
GACACGTGGG | 1.02 ± 0.055
GACAGAGCCA | 1.1036 ± 0.0011
GACAGAGGGT | 1.04 ± 0.013
GACAGCGGCG | 1.01 ± 0.032
GACAGGGTCC | 1.04 ± 0.052
GACAGTCGGC | 0.9669 ± 0.0067
GACATAAAGT | 0.986 ± 0.014
GACATCCGGC | 1.05 ± 0.036
GACATGATGT | 1.032 ± 0.0063

Sequence | switch fluorescence ratio
GACATTCACC | 1.1 ± 0.016
GACCAAGAAT | 1.06 ± 0.03
GACCAATATT | 1.134 ± 0.0034
GACCACGCTG | 1.044 ± 0.0056
GACCAGCCCC | 1.31 ± 0.098
GACCATGTTT | 0.9932 ± 0.0082
GACCCTAGAT | 1.008 ± 0.0036
GACCCTGATA | 0.987 ± 0.015
GACCGGACAT | 0.996 ± 0.013
GACCGGAGTC | 1.03 ± 0.049
GACCGTAATG | 1.05 ± 0.03
GACCTAAGAC | 1.13 ± 0.053
GACCTATATT | 1.05 ± 0.022
GACCTATCTT | 1.035 ± 0.0017
GACCTATTCG | 1.01 ± 0.018
GACCTATTTT | 1.023 ± 0.0039
GACCTCAGAC | 1.09 ± 0.024
GACCTCAGGT | 1.08 ± 0.11
GACCTTTGTT | 1.01 ± 0.022
GACGACAGTC | 1.029 ± 0.0052
GACGACGACA | 2.5 ± 0.092
GACGACTATT | 1.13 ± 0.016
GACGACTGAG | 0.999 ± 0.087
GACGAGCGGT | 1.3 ± 0.22
GACGAGGCAG | 2.27 ± 0.21

Sequence | switch fluorescence ratio
GACGATTGCG | 1.01 ± 0.032
GACGATTGTG | 0.991 ± 0.07
GACGGAAGAA | 1.74 ± 0.072
GACGGAAGTT | 1.004 ± 0.0017
GACGGAGTCG | 0.997 ± 0.03
GACGGCAGTG | 1 ± 0.02
GACGGGATAG | 1.245 ± 0.0072
GACGGGATCA | 1.02 ± 0.033
GACGGGCCGG | 1.01 ± 0.03
GACGGGGACT | 1.1 ± 0.025
GACGGGGCCC | 1 ± 0.013
GACGGGGGAA | 1.82 ± 1.3
GACGGGGGGC | 1.02 ± 0.018
GACGGGGGTA | 1.04 ± 0.043
GACGGGGTTA | 1.02 ± 0.018
GACGGGTTAG | 1.02 ± 0.017
GACGGTAAAG | 0.996 ± 0.037
GACGGTAGTT | 1.01 ± 0.047
GACGGTCACT | 1.21 ± 0.013
GACGGTTGCG | 0.977 ± 0.054
GACGTCGGGA | 1.012 ± 0.0021
GACGTTGGGG | 0.977 ± 0.01
GACGTTTAAT | 1.021 ± 0.0057
GACGTTTTGG | 0.997 ± 0.025
GACTAAAATG | 1.02 ± 0.019

Sequence | switch fluorescence ratio
GACTAAATGC | 1.8 ± 0.3
GACTAATACG | 1.04 ± 0.024
GACTACAGTG | 1.1 ± 0.019
GACTAGGAAG | 0.994 ± 0.022
GACTATTAGG | 0.989 ± 0.029
GACTATTGGG | 1 ± 0.044
GACTATTTGG | 1.02 ± 0.044
GACTCAGACA | 1.03 ± 0.047
GACTCGAAAA | 1.17 ± 0.16
GACTCTAGGA | 1.064 ± 0.0025
GACTCTATGG | 0.943 ± 0.11
GACTGAATAC | 3.91 ± 1.9
GACTGAGGGG | 1.02 ± 0.05
GACTGAGTTG | 0.998 ± 0.036
GACTGGCATA | 1.097 ± 0.0039
GACTGGCTT | 0.9868 ± 0.0073
GACTGGGGAG | 0.991 ± 0.056
GACTGGGGGG | 0.997 ± 0.041
GACTGTAAGC | 1.057 ± 0.0074
GACTGTACTA | 1.48 ± 0.075
GACTTACGTT | 1.22 ± 0.17
GACTTCGAAA | 1.63 ± 0.028
GACTTCGAGC | 1.02 ± 0.024
GACTTGAGGT | 1.03 ± 0.025
GACTTGCTGG | 0.9876 ± 0.0044

Sequence | switch fluorescence ratio
GACTTGGAAT | 1 ± 0.041
GACTTTGGCA | 0.983 ± 0.034
GACTTTGTCA | 1.04 ± 0.025
GACTTTTACC | 1.07 ± 0.027
GACTTTTTAG | 0.9801 ± 0.0065
GAGAAAGCCC | 1 ± 0.015
GAGAAGAGGA | 0.9918 ± 0.0021
GAGAAGATTT | 1.036 ± 0.0016
GAGAATCCGG | 1 ± 0.087
GAGAATGGGT | 0.981 ± 0.022
GAGAATGTGT | 0.994 ± 0.012
GAGACACATA | 1.09 ± 0.013
GAGACCGTGT | 1.01 ± 0.052
GAGACGGGGA | 0.982 ± 0.021
GAGACGGGTG | 1.01 ± 0.031
GAGACGGTCT | 1.05 ± 0.025
GAGAGAAGTG | 0.945 ± 0.022
GAGAGAATGG | 0.994 ± 0.0043
GAGAGACAGG | 1.014 ± 0.0095
GAGAGGAGGG | 0.944 ± 0.049
GAGAGGAGTA | 0.967 ± 0.037
GAGAGGCTGC | 0.975 ± 0.02
GAGAGGCTGT | 0.9538 ± 0.0062
GAGAGGGAGC | 0.91 ± 0.076
GAGAGGGGCT | 1.01 ± 0.02

Sequence | switch fluorescence ratio
GAGAGGGGTC | 1.01 ± 0.045
GAGAGGTG | 1.08 ± 0.021
GAGAGTACGT | 0.964 ± 0.013
GAGAGTTATT | 0.988 ± 0.04
GAGATATACT | 1.06 ± 0.017
GAGATCAGTT | 0.9808 ± 0.0058
GAGATGATTT | 1.02 ± 0.063
GAGATGGGGC | 1.09 ± 0.1
GAGATGTTT | 0.969 ± 0.04
GAGATTCTTG | 1 ± 0.02
GAGATTGGTG | 1 ± 0.031
GAGATTGTGG | 0.9652 ± 0.0048
GAGCAAGAGT | 1.8 ± 0.046
GAGCAGGGCC | 0.982 ± 0.046
GAGCATATCA | 1.006 ± 0.0028
GAGCCAGGGA | 1.001 ± 0.0029
GAGCCCAATG | 1.0092 ± 0.001
GAGCGGGGGA | 1.03 ± 0.017
GAGCGGTTTG | 0.998 ± 0.017
GAGCGTCGGA | 1.03 ± 0.12
GAGCTAGGAT | 0.985 ± 0.018
GAGCTGGCGG | 1.05 ± 0.038
GAGCTTACTT | 1.104 ± 0.011
GAGCTTCTGT | 1 ± 0.04
GAGCTTGAGT | 0.984 ± 0.011

Sequence | switch fluorescence ratio
GAGCTTTTTT | 0.9986 ± 0.0034
GAGGAAACAG | 1.022 ± 0.0067
GAGGAACCTG | 1.09 ± 0.0052
GAGGAAGGGA | 1.01 ± 0.017
GAGGAAGTTT | 1 ± 0.041
GAGGAATGAG | 0.9878 ± 0.005
GAGGAATTGG | 0.979 ± 0.012
GAGGACATGC | 0.979 ± 0.11
GAGGAGGGGG | 0.986 ± 0.032
GAGGAGGTAT | 0.973 ± 0.019
GAGGAGTGAA | 0.9973 ± 0.0067
GAGGATATAG | 1.03 ± 0.061
GAGGATATGG | 0.98 ± 0.021
GAGGATGTCT | 0.99 ± 0.021
GAGGATTAGA | 0.988 ± 0.015
GAGGATTCGG | 0.986 ± 0.026
GAGGCAGGGT | 1.033 ± 0.0064
GAGGCATCTC | 1.02 ± 0.025
GAGGCCTTGG | 0.983 ± 0.04
GAGGCGGACT | 1.02 ± 0.015
GAGGCGGATT | 1.01 ± 0.026
GAGGCTAGTG | 0.988 ± 0.0092
GAGGCTGGGG | 1 ± 0.038
GAGGGAAAAA | 1.44 ± 0.88
GAGGGAAGGT | 1.02 ± 0.02
